Patent EP2548892A1 (CSL Behring GmbH, dated 2013)

How the values were obtained:
Human FXIIa beta (human) [1] = target: Human FXIIa beta (human) (UniProt P00748); assay: Biacore, purified IgG4 captured on anti-human IgG, FXIIa beta injected, 1:1 model
[2] = target: Human FXIIa (activated Factor XII) (human) (UniProt P00748); assay: cell-based or functional assay
Human FXIIa beta (human) [3] = target: Human FXIIa beta (human) (UniProt P00748); assay: Biacore, purified IgG captured on anti-human IgG, FXIIa beta injected at 0-40 nM, 1:1 model, 25°C
Human FXIIa beta (human) [4] = target: Human FXIIa beta (human) (UniProt P00748); assay: Biacore, KD against parental 3F7 (the reference itself)
[5] = target: T1, Human FXII (unactivated Factor XII) (human, UniProt P00748 20-615); assay: Biacore, purified IgG captured on anti-human IgG, FXII injected at 0-500 nM, 1:1 model, 25°C
T1 construct: Bought from Enzyme Research Laboratories; also called Hageman factor
T1 sequence: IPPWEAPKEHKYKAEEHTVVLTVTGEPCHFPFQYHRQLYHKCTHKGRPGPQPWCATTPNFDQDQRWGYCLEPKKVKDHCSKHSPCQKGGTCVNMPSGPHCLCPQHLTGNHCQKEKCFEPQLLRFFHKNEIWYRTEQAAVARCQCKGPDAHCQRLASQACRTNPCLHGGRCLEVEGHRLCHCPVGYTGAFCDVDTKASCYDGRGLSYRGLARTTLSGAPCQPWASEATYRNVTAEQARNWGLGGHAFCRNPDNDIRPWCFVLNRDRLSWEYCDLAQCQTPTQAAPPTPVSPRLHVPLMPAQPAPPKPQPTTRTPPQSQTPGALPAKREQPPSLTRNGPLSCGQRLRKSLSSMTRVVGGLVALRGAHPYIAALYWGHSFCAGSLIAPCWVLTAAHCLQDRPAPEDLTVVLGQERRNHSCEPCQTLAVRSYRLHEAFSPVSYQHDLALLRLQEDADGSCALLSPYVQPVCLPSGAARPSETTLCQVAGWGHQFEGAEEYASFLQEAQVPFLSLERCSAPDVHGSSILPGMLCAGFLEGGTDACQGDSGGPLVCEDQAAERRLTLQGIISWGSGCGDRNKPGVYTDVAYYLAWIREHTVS

B1: 3F7 monoclonal antibody (fully human IgG4/lambda) (antibody, V domains shown)
VH: EVQLLESGGGLVQPGGSLRLSCAASGFTFSKYIMQWVRQAPGKGLEWVSGIRPSGGTTVYADSVKGRFTISRDNSKNTLYLQMNSLRAEDTAVYYCARALPRSGYLISPHYYYYALDVWGQGTTVTVSS
VL: QSELTQPPSASGTPGQRVTISCSGSSSNIGRNYVYWYQQVPGTAPKLLIYSNNQRPSGVPDRFSGSKSGTSASLVISGLRSEDEADYYCAAWDASLRGVFGGGTKLTVLG
notes: also called 3F7 mAb; MAb 3F7
Kd (Human FXIIa beta (human) [1]): 8.6 nM
koff (Human FXIIa beta (human) [1]): 0.0011 s⁻¹
kon (Human FXIIa beta (human) [1]): 120000 M⁻¹ s⁻¹
potency in FXIIa amidolytic activity assay, against OT2 [2]: 2 fold
Kd (Human FXIIa beta (human) [3]): 6.2 nM
Fold affinity improvement (Human FXIIa beta (human) [4]): 1 fold
Kd [5]: 121 nM
